In the supplement of paper PMC10567573:

B1: MMP1 (parent)
chain: MFFKDRFYMRTNPFYPEVELNFIS
B2: RIT1 (parent)
chain: FHALVREIRRKEKEAVLAMEKKSK

Variants of: B1
Experiment: protein stability index of a GFP-peptide fusion (GPS, HEK-293T) (PSI 1-6); higher = more stable
Settings: c terminus: a fixed tail appended
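Also: lentivirally expressed fusions sorted by FACS into six bins by GFP to DsRed ratio, PSI derived from sequencing read proportions per bin multiplied by bin number.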

Variant | protein stability index
MFFKDRFYMRTNPFYPEVEWNFIS | 3.09
MFFKDRFYMRTNPFYPEVELAFIS | 2.56
MFFKDRFYMRTNPFYPEVELCFIS | 3.71
MFFKDRFYMRTNPFYPEVELDFIS | 3.07
MFFKDRFYMRTNPFYPEVELFFIS | 2.33
MFFKDRFYMRTNPFYPEVELGFIS | 4.41
MFFKDRFYMRTNPFYPEVELHFIS | 2.76
MFFKDRFYMRTNPFYPEVELIFIS | 3.34
MFFKDRFYMRTNPFYPEVELKFIS | 1.96
MFFKDRFYMRTNPFYPEVELLFIS | 3
MFFKDRFYMRTNPFYPEVELMFIS | 1.94
MFFKDRFYMRTNPFYPEVELPFIS | 2.26
MFFKDRFYMRTNPFYPEVELQFIS | 3.29
MFFKDRFYMRTNPFYPEVELRFIS | 2.74
MFFKDRFYMRTNPFYPEVELSFIS | 2.91
MFFKDRFYMRTNPFYPEVELTFIS | 3.97
MFFKDRFYMRTNPFYPEVELVFIS | 2.67
MFFKDRFYMRTNPFYPEVELWFIS | 2.85
MFFKDRFYMRTNPFYPEVELYFIS | 3.15
MFFKDRFYMRTNPFYPEVELNAIS | 2.48
MFFKDRFYMRTNPFYPEVELNCIS | 2.19
MFFKDRFYMRTNPFYPEVELNDIS | 1.31
MFFKDRFYMRTNPFYPEVELNEIS | 2.38
MFFKDRFYMRTNPFYPEVELNGIS | 2.22
MFFKDRFYMRTNPFYPEVELNHIS | 2.16

Variant | protein stability index
MFFKDRFYMRTNPFYPEVELNIIS | 3.29
MFFKDRFYMRTNPFYPEVELNKIS | 1.83
MFFKDRFYMRTNPFYPEVELNLIS | 3.27
MFFKDRFYMRTNPFYPEVELNMIS | 2.32
MFFKDRFYMRTNPFYPEVELNNIS | 2.15
MFFKDRFYMRTNPFYPEVELNPIS | 2.18
MFFKDRFYMRTNPFYPEVELNQIS | 1.9
MFFKDRFYMRTNPFYPEVELNRIS | 2.69
MFFKDRFYMRTNPFYPEVELNSIS | 1.67
MFFKDRFYMRTNPFYPEVELNTIS | 1.65
MFFKDRFYMRTNPFYPEVELNVIS | 2.92
MFFKDRFYMRTNPFYPEVELNWIS | 2.09
MFFKDRFYMRTNPFYPEVELNYIS | 2.94
MFFKDRFYMRTNPFYPEVELNFAS | 2.47
MFFKDRFYMRTNPFYPEVELNFCS | 2.81
MFFKDRFYMRTNPFYPEVELNFDS | 2.65
MFFKDRFYMRTNPFYPEVELNFES | 2.33
MFFKDRFYMRTNPFYPEVELNFFS | 2.41
MFFKDRFYMRTNPFYPEVELNFGS | 1.67
MFFKDRFYMRTNPFYPEVELNFHS | 1.76
MFFKDRFYMRTNPFYPEVELNFKS | 2.16
MFFKDRFYMRTNPFYPEVELNFLS | 3.31
MFFKDRFYMRTNPFYPEVELNFMS | 3.28
MFFKDRFYMRTNPFYPEVELNFNS | 1.53
MFFKDRFYMRTNPFYPEVELNFPS | 3.27

Variant | protein stability index
MFFKDRFYMRTNPFYPEVELNFQS | 2.34
MFFKDRFYMRTNPFYPEVELNFRS | 3.09
MFFKDRFYMRTNPFYPEVELNFSS | 2.63
MFFKDRFYMRTNPFYPEVELNFTS | 1.56
MFFKDRFYMRTNPFYPEVELNFVS | 3.61
MFFKDRFYMRTNPFYPEVELNFWS | 3.27
MFFKDRFYMRTNPFYPEVELNFYS | 1.75
MFFKDRFYMRTNPFYPEVELNFIA | 2.44
MFFKDRFYMRTNPFYPEVELNFIC | 2.33
MFFKDRFYMRTNPFYPEVELNFID | 2.77
MFFKDRFYMRTNPFYPEVELNFIE | 2.3
MFFKDRFYMRTNPFYPEVELNFIF | 3.13
MFFKDRFYMRTNPFYPEVELNFIG | 2.88
MFFKDRFYMRTNPFYPEVELNFIH | 2.68
MFFKDRFYMRTNPFYPEVELNFIK | 2.83
MFFKDRFYMRTNPFYPEVELNFIL | 4.01
MFFKDRFYMRTNPFYPEVELNFIM | 2.75
MFFKDRFYMRTNPFYPEVELNFIN | 2.88
MFFKDRFYMRTNPFYPEVELNFIP | 3.07
MFFKDRFYMRTNPFYPEVELNFIQ | 2.87
MFFKDRFYMRTNPFYPEVELNFIR | 2.05
MFFKDRFYMRTNPFYPEVELNFIT | 3.07
MFFKDRFYMRTNPFYPEVELNFIV | 3.21
MFFKDRFYMRTNPFYPEVELNFIW | 3.15
MFFKDRFYMRTNPFYPEVELNFIY | 3.13

Variants of: B2
Experiment: as above
Settings: c terminus: a fixed tail appended

Variant | protein stability index
AHALVREIRRKEKEAVLAMEKKSK | 3.95
CHALVREIRRKEKEAVLAMEKKSK | 3.53
DHALVREIRRKEKEAVLAMEKKSK | 4.03
EHALVREIRRKEKEAVLAMEKKSK | 5.2
GHALVREIRRKEKEAVLAMEKKSK | 4.36
HHALVREIRRKEKEAVLAMEKKSK | 4.2
IHALVREIRRKEKEAVLAMEKKSK | 2.93
KHALVREIRRKEKEAVLAMEKKSK | 4.06
LHALVREIRRKEKEAVLAMEKKSK | 2.86
MHALVREIRRKEKEAVLAMEKKSK | 3.69
NHALVREIRRKEKEAVLAMEKKSK | 4.67
PHALVREIRRKEKEAVLAMEKKSK | 4.61
QHALVREIRRKEKEAVLAMEKKSK | 4.72
RHALVREIRRKEKEAVLAMEKKSK | 4.48
SHALVREIRRKEKEAVLAMEKKSK | 4.14
THALVREIRRKEKEAVLAMEKKSK | 4.16
VHALVREIRRKEKEAVLAMEKKSK | 3.04
WHALVREIRRKEKEAVLAMEKKSK | 2.43
YHALVREIRRKEKEAVLAMEKKSK | 1.92
FAALVREIRRKEKEAVLAMEKKSK | 2.64
FCALVREIRRKEKEAVLAMEKKSK | 2.57
FDALVREIRRKEKEAVLAMEKKSK | 3.76
FEALVREIRRKEKEAVLAMEKKSK | 3.37

Variant | protein stability index
FFALVREIRRKEKEAVLAMEKKSK | 2.73
FGALVREIRRKEKEAVLAMEKKSK | 2.83
FIALVREIRRKEKEAVLAMEKKSK | 2.04
FKALVREIRRKEKEAVLAMEKKSK | 2.73
FLALVREIRRKEKEAVLAMEKKSK | 2.61
FMALVREIRRKEKEAVLAMEKKSK | 2
FNALVREIRRKEKEAVLAMEKKSK | 3.23
FPALVREIRRKEKEAVLAMEKKSK | 3.35
FQALVREIRRKEKEAVLAMEKKSK | 2.95
FRALVREIRRKEKEAVLAMEKKSK | 3.02
FSALVREIRRKEKEAVLAMEKKSK | 1.96
FTALVREIRRKEKEAVLAMEKKSK | 2.55
FWALVREIRRKEKEAVLAMEKKSK | 3.04
FYALVREIRRKEKEAVLAMEKKSK | 2.72
FHCLVREIRRKEKEAVLAMEKKSK | 2.07
FHDLVREIRRKEKEAVLAMEKKSK | 2.19
FHELVREIRRKEKEAVLAMEKKSK | 1.48
FHFLVREIRRKEKEAVLAMEKKSK | 2.34
FHGLVREIRRKEKEAVLAMEKKSK | 2.15
FHHLVREIRRKEKEAVLAMEKKSK | 1.41
FHILVREIRRKEKEAVLAMEKKSK | 2.12
FHKLVREIRRKEKEAVLAMEKKSK | 2.04
FHLLVREIRRKEKEAVLAMEKKSK | 1.97

Variant | protein stability index
FHMLVREIRRKEKEAVLAMEKKSK | 1.96
FHNLVREIRRKEKEAVLAMEKKSK | 1.87
FHPLVREIRRKEKEAVLAMEKKSK | 1.45
FHQLVREIRRKEKEAVLAMEKKSK | 2.45
FHRLVREIRRKEKEAVLAMEKKSK | 2.05
FHSLVREIRRKEKEAVLAMEKKSK | 1.42
FHTLVREIRRKEKEAVLAMEKKSK | 2.28
FHVLVREIRRKEKEAVLAMEKKSK | 1.69
FHYLVREIRRKEKEAVLAMEKKSK | 2.13
FHAAVREIRRKEKEAVLAMEKKSK | 2.06
FHACVREIRRKEKEAVLAMEKKSK | 1.92
FHADVREIRRKEKEAVLAMEKKSK | 3.26
FHAEVREIRRKEKEAVLAMEKKSK | 3.18
FHAFVREIRRKEKEAVLAMEKKSK | 2.35
FHAGVREIRRKEKEAVLAMEKKSK | 2.52
FHAHVREIRRKEKEAVLAMEKKSK | 2.36
FHAIVREIRRKEKEAVLAMEKKSK | 2.35
FHAKVREIRRKEKEAVLAMEKKSK | 2.99
FHAMVREIRRKEKEAVLAMEKKSK | 3.92
FHANVREIRRKEKEAVLAMEKKSK | 2.65
FHAPVREIRRKEKEAVLAMEKKSK | 3.1
FHAQVREIRRKEKEAVLAMEKKSK | 2.08
FHARVREIRRKEKEAVLAMEKKSK | 2.44

Variant | protein stability index
FHASVREIRRKEKEAVLAMEKKSK | 2.77
FHATVREIRRKEKEAVLAMEKKSK | 2.23
FHAVVREIRRKEKEAVLAMEKKSK | 2.24
FHAWVREIRRKEKEAVLAMEKKSK | 1.77
FHAYVREIRRKEKEAVLAMEKKSK | 2.66
FHALAREIRRKEKEAVLAMEKKSK | 1.46
FHALCREIRRKEKEAVLAMEKKSK | 2.08
FHALDREIRRKEKEAVLAMEKKSK | 2.85
FHALEREIRRKEKEAVLAMEKKSK | 2.65
FHALFREIRRKEKEAVLAMEKKSK | 1.97
FHALGREIRRKEKEAVLAMEKKSK | 2.14
FHALHREIRRKEKEAVLAMEKKSK | 1.97
FHALIREIRRKEKEAVLAMEKKSK | 2.56
FHALKREIRRKEKEAVLAMEKKSK | 1.84
FHALLREIRRKEKEAVLAMEKKSK | 2.01
FHALMREIRRKEKEAVLAMEKKSK | 2.54
FHALNREIRRKEKEAVLAMEKKSK | 1.8
FHALPREIRRKEKEAVLAMEKKSK | 1.73
FHALQREIRRKEKEAVLAMEKKSK | 2.19
FHALRREIRRKEKEAVLAMEKKSK | 2.27
FHALSREIRRKEKEAVLAMEKKSK | 1.43
FHALTREIRRKEKEAVLAMEKKSK | 1.98
FHALWREIRRKEKEAVLAMEKKSK | 1.77

Variant | protein stability index
FHALYREIRRKEKEAVLAMEKKSK | 1.82
FHALVAEIRRKEKEAVLAMEKKSK | 1.34
FHALVCEIRRKEKEAVLAMEKKSK | 2.07
FHALVDEIRRKEKEAVLAMEKKSK | 1.26
FHALVEEIRRKEKEAVLAMEKKSK | 1.55
FHALVFEIRRKEKEAVLAMEKKSK | 2.74
FHALVGEIRRKEKEAVLAMEKKSK | 1.76
FHALVHEIRRKEKEAVLAMEKKSK | 1.42
FHALVIEIRRKEKEAVLAMEKKSK | 2.22
FHALVKEIRRKEKEAVLAMEKKSK | 1.43
FHALVLEIRRKEKEAVLAMEKKSK | 1.55
FHALVMEIRRKEKEAVLAMEKKSK | 1.81
FHALVNEIRRKEKEAVLAMEKKSK | 2.47
FHALVPEIRRKEKEAVLAMEKKSK | 1.81
FHALVQEIRRKEKEAVLAMEKKSK | 1.84
FHALVSEIRRKEKEAVLAMEKKSK | 2.06
FHALVTEIRRKEKEAVLAMEKKSK | 3.19
FHALVVEIRRKEKEAVLAMEKKSK | 1.75
FHALVWEIRRKEKEAVLAMEKKSK | 1.81
FHALVYEIRRKEKEAVLAMEKKSK | 1.73
FHALVRAIRRKEKEAVLAMEKKSK | 2.79
